Test results reported in US9097721B2, “Compositions comprising engineered phosphothreonine affinity reagents, methods of making, and methods of use” (The Board of Trustees of the University of Illinois, priority 2012, dated 2015).
Where “and” joins values, the source holds several entries; their conditions need not be identical. Equal entries are not always repeated. Entries after “also recorded” stand apart in the source; their conditions may differ. Where two headings read alike, the source gives them in different places.

What was measured:
[1] = target: T1, pT peptide (Rad 9-pT: SLEVpTEADATFYAKK) (Saccharomyces cerevisiae, UniProt P14737); conditions: Durocher et al. (2000); read-out: previously reported Kd by ITC; cited from earlier work
T1 construct: host or cells: chemical synthesis

[2] = Fluorescence-based thermal shift (FTS) assay, melting temperature; type: physicochemical; conditions: mid-point of melting curve
Procedure: (§1) The FTS assay was performed on a MxPro-Mx3005P instrument (Stratagene) following the protocol described by Giuliani et al (Giuliani et al. (2008) Biochemistry 47, 13974-84). It is a real-time assay using the SYBR® Green experiment setting with dissociation curve. The default FRROX filter set was used with an excitation wavelength of 492 nm and emission wavelength of 610 nm. FHA1 domains diluted with PBS to 2× final concentration (i.e. 2 μM and 8 μM) were mixed with 10×SYPRO® Orange protein gel stain (Invitrogen; 5000× concentration in DMSO) to give a final dye concentration of 10×. Then, to the protein wells only, 10 μL of the dye+protein mixture was added along with 10 μL of 1×PBS buffer. In other wells, 10 μL of either the pT peptide or its non-phosphorylated form (diluted to 2× final concentration with PBS, i.e. 100 μM and 500 μM) was added to 10 μL of dye+protein mixture. The final reaction volume was 20 μL with final concentrations of 1 μM or 4 μM of FHA1 domains, 50 μM or 250 μM of pT and non-phosphorylated peptides and 5× final concentration of the SYPRO® Orange. The assay was performed in duplicate in 96 well white PCR plates (BIO-Rad) covered with optically clear Microseal® ‘B’ Film (Bio-Rad) and heated from 25° C. to 95° C. and the melting curve was obtained with fluorescence (R) values plotted on the Y-axis and increasing temperature (° C.) on the X-axis. The mid-point of the curve gives the melting temperature (Tm), which shifts to a higher temperature in the presence of the pT peptide.
To evaluate the thermal stability of the D2 variant, phage particles displaying the D2 variant were heated at various temperatures (30° C., 37° C., 50° C., 60° C., 70° C., 80° C., and 95° C.) prior to incubation with the cognate pT peptide (Rad9-pT) and the non-phosphorylated form of the same peptide (Rad9-T). […] (FIG. 8). The D2 variant (purified six-his tagged protein) was mixed with SYPRO orange dye with or without the Rad9-pT-containing peptide and heated from 25° C. to 95° C. in a real-time PCR experiment known as the Fluorescence-based thermal shift (FTS) assay^36. In this assay, initially, the fluorescence of SYPRO orange dye is quenched in the aqueous environment of a folded protein, but as the protein starts to unfold upon heating, the dye interacts with the hydrophobic core of the protein and its fluorescence increases. Therefore, an increase in fluorescence of the dye is directly proportional to protein unfolding, until a temperature (referred to as Tm here) is reached at which the dye fluorescence decreases due to aggregation and precipitation of the protein. The melting temperature (Tm) of the D2 variant was determined by fluorescence-based thermal shift (FTS) assay to be approximately 5° C. lower than the Tm of the WT FHA1 domain. To improve the thermal stability of the D2 variant, affinity selection was carried out by heating the phage library displaying D2 variants at 50° C. prior to incubation with the pT peptide ligand to favor the isolation of variants that remained folded and functional above 50° C.
(§2) The Tm values of FHA1 variants were determined by FTS assay (Giuliani et al. (2008) Biochemistry 47, 13974-84). A representative Tm curve for the G2 variant at 1 μM concentration is shown (solid squares), alone and in the presence of the pT peptide (FIG. 11). […] The Tm values of the thermally stable variants (along with WT and D2 variant) at 1 μM and 4 μM concentration, along with the Tm shift in the presence of two different concentrations (50 μM and 250 μM) of the pT peptide, are listed in Table S3.
The Tm (temperature at which 50% of the protein is unfolded) of the protein domain variants was determined by a fluorescence-based thermal shift assay (Giuliani et al. (2008) Biochemistry 47, 13974-84). The proteins were mixed with SYPRO orange dye, and heated from 25° C. to 95° C. on a real-time thermocycler. […]

Rad9-pT peptide = target: T2, Rad9-pT peptide (Saccharomyces cerevisiae, UniProt P14737); experiment: ELISA of GST fusions of FHA1 domains; type: binding, yeast; conditions: expressed in bacterial cytoplasm as GST fusion; listed as WT FHA1 domain
T2 construct: host or cells: chemical synthesis
Procedure: For production of FHA1-GST fusion protein, BL21 DE3 cells (10 mL; Stratagene) harboring the expression vector was grown overnight at 30° C. using the Overnight Express™ Autoinduction System 1 (Novagen). The next day, cells were lysed using BugBuster® 10× Protein Extraction Reagent (Novagen) following the manufacturer's instructions. Cell lysate (100 μL diluted 1:5 with PBST) was incubated with the biotinylated peptides as described above and detected using anti-GST antibody conjugated to HRP (diluted 1:10,000 with PBST; GE Healthcare).

[3] = target: T1, pT peptide (Rad 9-pT: SLEVpTEADATFYAKK); experiment: Isothermal titration calorimetry (ITC); type: binding, yeast; conditions: in solution by ITC; FHA1 domain 35 μM in cell; listed as WT FHA1 domain
Procedure: A fixed amount (10 μL) of the pT peptide (Rad 9-pT: SLEVpTEADATFYAKK (SEQ ID NO:9); 500 μM) was injected from the syringe into the sample cell containing the FHA1 domain (35 μM). […] Each measurement was repeated three times.
The affinity of the G2 variant and the WT FHA1 domain to the pT peptide (SLEVpTEADATFYAKK) (SEQ ID NO:9) was determined by ITC (FIG. 12). The sample cell contained the purified FHA1 domains (35 μM) and the injection syringe was filled with the pT peptide (350 μM). […] The FHA1 domains bound to the pT peptide with a stoichiometry of 1:1, and the ITC graph was fitted by the single site binding model.

[4] = target: T3, cognate pT peptide (Rad9-pT) (Saccharomyces cerevisiae, UniProt P14737); experiment: FTS assay, Tm shift in the presence of the cognate pT peptide; type: binding, yeast
T3 construct: host or cells: chemical synthesis
Procedure: as §1, §2

B1: WT: N-terminal FHA1 domain of S. cerevisiae Rad53 protein kinase, residues 1-170 (SEQ ID NO:7) (protein, listed as Saccharomyces cerevisiae)
chain: MENITQPTQQSTQATQRFLIEKFSQEQIGENIVCRVICTTGQIPIRDLSADISQVLKEKRSIKKVWTFGRNPACDYHLGNISRLSNKHFQILLGEDGNLLLNDISTNGTWLNGQKVEKNSNQLLSQGDEITVGVGVESDILSLVIFINDKFKQCLEQNKVDRIRSNLKNT
Q: Which Kd [1] does the source give for B1 here?
A: The Kd was 530 nM.

Q: And the “Tm (° C.)” value ([2]; protein concentration 1 μM)?
A: Its value is 66.7 °C.

Q: What about the “Tm (° C.)” value ([2]; protein concentration 4 μM) of the same molecule?
A: The value was 66.4 °C.

Q: And the “binding of GST fusion to Rad9-pT peptide” value (Rad9-pT peptide)?
A: The value was “bound specifically; also recorded: showed specific binding”.

Q: What about the Kd [3] of the same molecule?
A: The Kd was ~1000 nM and 1000 nM.

Q: And the “Tm shift (° C.) in the presence of pT peptide” value (shortened to “Tm shift (° C.) in the presence”) ([4]; 50 μM pT peptide, protein 1 μM)?
A: The value was 1.7 °C.

Q: And the “Tm shift (° C.) in the presence” value ([4]; 50 μM pT peptide, protein 4 μM)?
A: Its value is 1.95 °C.

Q: And the “Tm shift (° C.) in the presence” value ([4]; 250 μM pT peptide, protein 1 μM)?
A: The value was 3.8 °C.

Q: And the “Tm shift (° C.) in the presence” value ([4]; 250 μM pT peptide, protein 4 μM)?
A: The value was 3.55 °C.
